Measurements: PMC7527988, “Cell-free biogenesis of bacterial division proto-rings that can constrict liposomes” (Communications Biology, 2020)

Target: T1, FtsZ labelled with Alexa Fluor 647 (E. coli, UniProt P0A9A6 1-383, Alexa Fluor 647 label, 0.9 ± 0.2 mol of fluorophore per mol of protein)
T1 construct: FtsZ, Escherichia coli cell division protein; called wild-type in the discussion; The label was added to the polymerised protein; also called FtsZ-A647
T1 sequence (looked up): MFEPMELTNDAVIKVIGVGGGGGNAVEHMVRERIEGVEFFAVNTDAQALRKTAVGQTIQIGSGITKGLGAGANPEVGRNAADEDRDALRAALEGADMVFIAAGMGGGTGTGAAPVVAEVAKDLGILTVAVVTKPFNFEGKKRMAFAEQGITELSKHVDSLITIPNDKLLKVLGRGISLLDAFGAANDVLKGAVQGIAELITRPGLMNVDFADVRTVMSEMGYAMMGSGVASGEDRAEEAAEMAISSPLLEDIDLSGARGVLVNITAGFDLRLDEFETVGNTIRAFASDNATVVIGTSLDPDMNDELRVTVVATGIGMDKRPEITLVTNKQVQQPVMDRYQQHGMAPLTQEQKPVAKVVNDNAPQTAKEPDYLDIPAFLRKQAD
Assay: recruitment to a supported lipid bilayer, fluorescence microscopy; 1 µM purified sZipA-A488 first incubated on the SLB with DGS-NTA lipids, washed; 3 µM purified FtsZ-A647 with 2 mM GTP added in minimal reaction buffer or PUREfrex2.0, with 50 g/L Ficoll70 or cell-free synthesized ZapA; spinning disk microscopy at room temperature
Settings: both partners purified

binding result: binds
B1: soluble ZipA labelled with Alexa Fluor 488 (domain or fragment)
chain: not shown
modifications: Alexa Fluor 488 label, 0.9 ± 0.2 mol of fluorophore per mol of protein
notes: Held on the supported lipid bilayer through the His6-tag and DGS-NTA lipids; also called sZipA-A488; sZipA; not shown: His6, N-terminal, kept
